Data: patent publication US20210337838A1, “RECOMBINANT EXPRESSION OF FUMONISIN AMINE OXIDASE” (priority 2018, published 2021)
Like-named read-outs stand apart in the source and are kept apart here.

Experiments:
[1] = Amplex red assay of RID+AO enzyme; type: biochemical; settings: 80 nM enzyme, 25 μM FB1, 50 mM HEPES (pH 7), 150 mM NaCl
[2] = Ethanol tolerance of deamination activity, reverse phase LC/MS
[3] = NaCl dependence of fumonisin deamination activity, Amplex red; type: biochemical
Protocol: (§1) 98 μL of this solution was added to 2 μL of a stock of FB2 in a microfuge tube (2.5 mM) and incubated at 30° C. for 30 mins. At the end of the incubation time, 20 μL of the reaction was diluted with 80 μL of 50 mM HEPES pH 7.0, 150 mM NaCl and 100 μL of this was added in triplicate to wells of a 96-well microplate. 100 μL of Amplex™ red reaction buffer consisting of 50 mM HEPES pH 7.0, 150 mM NaCl, 200 μM Amplex™ red, 2 U/ml horseradish peroxidase was immediately added to each well and absorbance was measured at 571 nm. Rates were calculated based on an H2O2 standard curve and the incubation time taking into account the dilution factors. […] 100 μL of protein sample was added to wells in triplicate in a 96-well microplate. 100 μL of Amplex™ red reaction buffer consisting of 50 mM HEPES pH 7.0, 200 μM Amplex™ red, 2 U/ml horseradish peroxidase and 50 μM FB2 was then added to each well and absorbance was monitored at 571 nm every 10 mins for 1 hr. A standard curve consisting of 0-10 μM H2O2 was included to determine the absorbance for every pmol of H2O2 generated by the reaction.

[4] = Effect of temperature on fumonisin deamination activity, reverse-phase LC/MS; type: biochemical; settings: 6 nM enzyme
Protocol: (§2) Activity was measured via reverse-phase LC/MS analysis. […] All proteins were scanned at a concentration of 0.3 mg/ml in buffer containing 20 mM Tris-HCl (pH 7.4), 50 mM NaCl and 0.75 mM DTT. Thermal denaturation was monitored at […] with a temperature scan ranging from 20 to 95° C., increasing by 1° C. per minute with data collection every 30 seconds. Baseline corrected data were converted from millidegrees to mean residue ellipticity, and thermal denaturation curves were produced by nonlinear regression in Graphpad Prism.

[5] = FB2 deamination by purified recombinant AnFAO, reverse-phase LC/MS; type: biochemical; settings: 6 nM enzyme, 1 μM FB2, 0.1 mg/ml catalase, 1 h at 37° C.
Protocol: In particular, all MS data were collected with a Q-Exactive™ Quadrupole Orbitrap™ mass spectrometer (Thermo Scientific, MA, USA) coupled to an Agilent 1290 ultra-high-performance liquid chromatography (UHPLC) system. Fumonisins were resolved on a Zorbax™ Eclipse Plus Rapid Resolution High Definition (RRHD) C18 column (2.1×50 mm, 1.8 μm; Agilent Technologies, CA, USA), maintained at 35° C. The mobile phase was comprised of water with 0.1% formic acid (A), and acetonitrile with 0.1% formic acid (B) (Optima grade, Fisher Scientific, NJ, USA). The gradient consisted of 0% B for 0.5 min before increasing to 100% over 3 min, held at 100% for 2.5 min and reduced to 0% over 0.5 min. The fumonisins were detected in negative ionization mode using the following electrospray conditions: capillary voltage, 4.0 kV; capillary temperature, 400° C.; sheath gas, 17.00 units; auxiliary gas, 8.00 units; probe heater temperature, 450° C.; S Lens RF level, 45.00. […] The five highest intensity ions from the full scan (excluding isotopes) were sequentially selected using a 1.2 m/z isolation window and analyzed at a resolution of 17,500; AGC target, 1×10^5; max IT, 64 ms; normalized collision energy (NCE) 30; threshold intensity 9.1×10^4; and dynamic exclusion of 1.5 s. Fumonisins were detected by accurate mass (±5 ppm) and retention time (±0.1 min) and verified by MS/MS. […]

[6] = Fumonisin deamination activity of AnFAO with or without excess FAD; type: biochemical; settings: enzyme dialyzed in 20 mM MES (pH 6), 150 mM NaCl with additional 50 μM FAD
Description: The whole mass of AnFAO following denaturation and LC-MS analysis was 51,320.70 Da, which matches the predicted mass of the apo-enzyme (51,320.97 Da) as shown in FIG. 12D. […] AnFAO also lacked the requisite Histidine or Tyrosine residues for covalent 6α-linkages to the FAD backbone, as observed in other covalent flavoproteins (Heuts et al., 2009).

[7] = 1 μM enzyme, room temperature, 16 h, corn material in water
Protocol: Following incubation, 700 μls of extraction solution (78% acetonitrile, 2% ethyl acetate) was added to each sample and incubated at 37° C. with shaking for 45 minutes. This mixture was then centrifuged at 20,000×g and 400 μls of the cleared supernatant was mixed with an equal volume of 50% methanol. Samples were then analyzed for fumonisin contamination by reverse phase HPLC-MS as previously described.

[8] = Circular dichroism thermal denaturation; type: physicochemical; settings: 0.3 mg/ml, 20 mM Tris-HCl (pH 7.4), 50 mM NaCl, 0.75 mM DTT, monitored at 222, 20 to 95° C.
Protocol: as §2

[9] = Protocol: as §1

B1: RID+AO: GST-tagged 597 amino acid A. niger enzyme with N-terminal Reactive Intermediate Deaminase domain and C-terminal amine oxidase domain (protein)
chain: MAPAPVLATSAYYAPGVVSSASKYLHVSGQPGTIEGTAPADYNSQIHLALVNLHRVLAATGATPRDVVKLTLYIVDYDPNNRLHTRPLQTWLAGHKPAITLVPVPQLAVPDWKFEIEATVAVPDSIPASLSLPSPTETTDVLVIGAGLSGLMAAETTLQSGHSCIVLEGRDRVGGKTWTCPLPSGTGVVDLGAAWINDTNQSMMYELARRAGADLIEQNTTGNCLLQREDGAITAFPYGQTPCITPQIVKEIEAIRDTAEQDCQSFSTSRPQSPALDSLSFLAYLHSRNASPIAAANASVWTRAMLGQEPQDISALYFLNYCKSGGGLLQMRSDRKHGAQYLRVRQGTQIFAKTLAESLPTDTIRFGQRVVGITQVQKGVNYVQTESGLVVKARKVICSVPTPVLKTIKFEPQLPAAKQLLVDSFRYGYYTKVMLSFRTAWWADRGFCGLAQSFVGPASIYRDTSSPEDGKWVLTAFLAGDAGRNWSALGSQRERELALLEQLGAIYGDKDLPKREFVEALGHEWSTEELSGWGCPCPALPPGVLTLAGDALREPFRDVHFVGTETAEEWKGYMEGAVRSGKRGAAEAVKGLTRSQL
modifications: GST tag; Aspergillus niger
- activity towards fumonisins [1]: no activity

B2: AnFAO_15309 (protein)
chain: MSVSNDPTTKLYDAVIVGAGLSGLQAAHSIQAAGFSVCILEATDRMGGKTLTVKSSEKGYNDLGAAWVNDTNQTEIFKLHQRYGLDGVVQYTCGDDILESGEGVIRKIPYGLPLTGLPKKLLDILRIESSRLDLDDPTSFPGATEVDNLTFRDFCVEKTGSEDVIHITDAISTALLGLNSNELSALYMLYYFKSGSGIDNLLSDERDGAQYLRTRQGTQTIARKMADELTQSDIFLGMPVTSINQTDADAHCVVQTLDGSSFRCRRVIVSIPTTLYRSVSFHPPLPHAKQVLSDHTIMGYYSKVIFIFKEPWWRDAGLTGIVNCAGGPITFTRDTSVPTDDQWSITCFMVGSRGRAWSKLSKDDRYSQVWEQFRRCFEEFVENIPEPVNTLEMEWSKEPYFLGAPCPAMIPGLLTTAGSDLAAPHGKVHFIGTETSTVWRGYMEGAIRAGQRGGAEVVTALQED
modifications: codon-optimized; AnFAO_15309 codon optimized for Saccharomyces cerevisiae
- activity remaining at 5% EtOH ([2]; 10 nM enzyme, 1 μM FB2, 30 minutes at 37° C., 5% EtOH): 71%
- activity remaining at 10% EtOH ([2]; 10 nM enzyme, 1 μM FB2, 30 minutes at 37° C., 10% EtOH): 43%
- activity remaining at 20% EtOH ([2]; 10 nM enzyme, 1 μM FB2, 30 minutes at 37° C., 20% EtOH): 12%
- deamination activity at 30% EtOH ([2]; 30% EtOH): Negligible amounts
- deamination activity at 40% EtOH ([2]; 40% EtOH): Negligible amounts
- of maximum activity at 0 mM NaCl ([3]; 0 mM NaCl): 70%
- NaCl concentration of optimal activity ([3]; 50 mM HEPES pH 7.0, FB2): 50 mM
- of maximum activity at 1 M NaCl ([3]; 1 M NaCl): 66%
- optimal temperature of FB2 deamination ([4]; 2 μM FB2): 50 °C
- of maximal activity at 21° C. ([4]; 2 μM FB2, 21° C.): ca. 35%
- of maximal activity at 60° C. ([4]; 2 μM FB2, 60° C.): 52%
- activity at 95° C. ([4]; 2 μM FB2, 95° C.): No activity
- conversion of FB2 into FPy2 [5]: Full conversion
- change in fumonisin deamination activity with additional FAD [6]: No difference
- intact fumonisins remaining after treatment [7]: no intact fumonisins remained
- intact fumonisins remaining after treatment ([7]; listed as AnFAO): No intact fumonisin remained
- melting temperature [8]: 71 °C
- optimal pH of activity ([9]; 300 nM enzyme, FB2, 30° C., 30 mins): 6
- activity remaining at pH 3.5 ([9]; Citrate pH 3.5): ca. 20%
- activity remaining at pH 9.0 ([9]; Pyrophosphate pH 9): ca. 30%
